Assay results taken from US20170145113A1 (Genentech, published 2017).
Positions count from the first letter of the chain named. Names may count otherwise.

Experiments:
[1] = target: T1, His-tagged human HtrA1 protease domain (human, UniProt Q92743 161-367); assay: phage competition ELISA (Fab on phage, HtrA1 in solution)
T1 construct: His-tagged protease domain; also called huHtrA1-PD-His; huHtrA1-PD
Experimental: (§1) MAXISORP™ microliter plates were coated with human HtrA1-PD-His at 2 μg/ml in PBS for 2 h and then blocked with PBST buffer (0.5% BSA and 0.05% TWEEN®20 in PBS) for 1 h at room temperature. Phage purified from culture supernatants were incubated with serially-diluted human or murine HtrA1 in PBST buffer in a tissue-culture microtiter plate for 1 h, after which 80 μl of the mixture was transferred to human HtrA1-coated wells for 15 min to capture unbound phage. The plate was washed with PBT buffer (0.05% TWEEN®20 in PBS), and HRP-conjugated anti-M13 antibody (Amersham Pharmacia Biotech) was added (1:5000 in PBST buffer) for 40 min. The plate was washed with PBT buffer and developed by adding tetramethylbenzidine substrate (Kirkegaard and Perry Laboratories, Gaithersburg, Md.). The absorbance at 450 nm was plotted as a function of target concentration in solution to determine phage IC50.

[2] = target: T2, His-tagged recombinant murine HtrA1 protease domain (murine, UniProt Q9R118 156-367); assay: as above
T2 construct: His-tagged protease domain; also called muHtrA1-PD-His; muHtrA1-PD
Experimental: as §1

[3] = target: T1, His-tagged human HtrA1 protease domain; assay: BIACORE SPR, single-cycle kinetics; Fab analyte over captured human HtrA1
[4] = target: T1, His-tagged human HtrA1 protease domain; assay: SPR (BIACORE), Fab
[5] = target: T1, His-tagged human HtrA1 protease domain; assay: BIACORE SPR, Fab analyte, Human HtrA1-PD (N=2)
[6] = target: T1, His-tagged human HtrA1 protease domain; assay: BIACORE T200 SPR; Fab analyte over huHtrA1-PD-His captured by anti-His antibody
Experimental: (§2) To determine the binding affinity of selected Fab variants for HtrA1, SPR measurement with a BIACORE™ T200 instrument was performed. Briefly, a series S sensor chip CM5 was activated with 1-EDC and NHS reagents according to the supplier's instructions, and anti-His antibody was coupled to achieve 200-300 response units (RU), then following by blocking un-reacted groups with 1 M ethanolamine. For kinetics measurements, approximately 5 nM of huHtrA1-PD-His was first injected at 10 μl/min flow rate to capture approximately 100 RU at 2 different flow cells (FC), except for FC1 (which served as a reference). Next, 5-fold serial dilutions of Fab in HBS-P buffer (0.01M HEPES pH 7.4, 0.15M NaCl, 0.005% surfactant P20) from low (0.8 nM) to high (50 nM) were injected (flow rate: 30 μl/min). The binding responses on HtrA1 were corrected by subtracting of RU from a blank flow cell. The sensorgram was recorded and subject to reference and buffer subtraction before evaluating by BIACORE® T200 Evaluation Software (version 2.0). Association rates (kₒₙ) and dissociation rates (koff) were calculated using a simple one-to-one Langmuir binding model. The equilibrium dissociation constant (KD) was calculated as the ratio of koff/kₒₙ.

[7] = target: T1, His-tagged human HtrA1 protease domain; assay: BIACORE SPR analysis, Fab format
Experimental: as §2

[8] = target: T1, His-tagged human HtrA1 protease domain; assay: cell-based or functional assay
[9] = target: T1, His-tagged human HtrA1 protease domain; assay: SPR (BIACORE), Fab; remark: listed apart in the source
From the text: (§3) To address W91 oxidation in HVR-L3, 2 variants (LC-W91Y and LC-W91L) were generated and produced as Fabs for BIACORE™ SPR binding analysis.
(§4) To determine the binding affinity of anti-HtrA1 Fabs by single-cycle kinetics, (SPR) measurement with a BIACORE™ T100 instrument was used. Briefly, a series S sensor chip CM5 was activated with 1-ethyl-3-(3-dimethylamino-propyl)carbodiimide hydrochloride (EDC) and N-hydroxysuccinimide (NHS) reagents according to the supplier's instructions, and streptavidin (Pierce) was coupled to achieve approximately 2500 response units (RU), followed by blocking un-reacted groups with 1 M ethanolamine.
(§5) For kinetics measurements, biotinylated human or murine HtrA1-PD-His was first injected at 10 μl/min flow rate to capture approximately 150 RU at 3 different flow cells (FC), except for FC1 (which served as a reference), and then 5-fold serial dilutions of anti-HtrA1 Fab in HBS-P buffer (0.01M HEPES pH 7.4, 0.15 M NaCl, 0.005% surfactant P20) from low (0.48 nM) to high (300 nM) were injected (flow rate: 30 μl/min) one after the other in the same cycle with no regeneration between injections. The sensorgram was recorded and subject to reference and buffer subtraction before evaluating by BIACORE™ T100 Evaluation Software (version 2.0). Association rates (kₒₙ) and dissociation rates (koff) were calculated using a simple one-to-one Langmuir binding model. The equilibrium dissociation constant (KD) was calculated as the ratio koff/kₒₙ.

[10] = target: T2, His-tagged recombinant murine HtrA1 …; assay: SPR (BIACORE), Fab
From the text: as §3, §4, §5

[11] = target: T1, His-tagged human HtrA1 protease domain; assay: BIACORE SPR, single-cycle kinetics; Fab analyte over captured human HtrA1; remark: listed apart in the source
[12] = target: T1, His-tagged human HtrA1 protease domain; assay: cell-based or functional assay; remark: listed apart in the source
[13] = target: T1, His-tagged human HtrA1 protease domain; assay: SPR (BIACORE T200), huHtrA1-PD-His captured by anti-His, Fab injected
[14] = target: T1, His-tagged human HtrA1 protease domain; assay: as above; remark: listed apart in the source
Experimental: as §2

[15] = target: purified full-length murine HtrA1 (murine, UniProt Q9R118 23-480); assay: cell-based or functional assay
[16] = target: purified full-length human HtrA1 (human, UniProt Q92743 23-480); assay: cell-based or functional assay
[17] = target: T3, murine HtrA4 protease domain (murine, UniProt A2RT60 160-371, limits assumed); assay: ELISA, hybridoma clone
T3 construct: domain: PD (protease domain); also called muHtrA4-PD; murine HtrA4-PD
T3 sequence (looked up): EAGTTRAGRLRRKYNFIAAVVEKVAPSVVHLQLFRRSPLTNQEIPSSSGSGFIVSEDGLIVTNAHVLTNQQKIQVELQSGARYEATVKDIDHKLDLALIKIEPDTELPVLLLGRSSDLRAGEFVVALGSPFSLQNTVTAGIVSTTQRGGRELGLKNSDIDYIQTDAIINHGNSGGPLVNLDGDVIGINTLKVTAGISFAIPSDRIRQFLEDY

T1 sequence (Q92743 other isoform, or with tags, fused parts or gaps limits assumed): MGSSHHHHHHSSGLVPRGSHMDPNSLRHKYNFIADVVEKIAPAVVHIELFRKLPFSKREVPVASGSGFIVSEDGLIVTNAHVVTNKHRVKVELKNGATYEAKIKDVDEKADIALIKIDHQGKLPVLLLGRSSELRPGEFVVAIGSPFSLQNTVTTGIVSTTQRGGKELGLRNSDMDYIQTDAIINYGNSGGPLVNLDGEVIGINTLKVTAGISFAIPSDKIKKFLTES
Sequence of purified full-length human HtrA1 (Q92743 23-480): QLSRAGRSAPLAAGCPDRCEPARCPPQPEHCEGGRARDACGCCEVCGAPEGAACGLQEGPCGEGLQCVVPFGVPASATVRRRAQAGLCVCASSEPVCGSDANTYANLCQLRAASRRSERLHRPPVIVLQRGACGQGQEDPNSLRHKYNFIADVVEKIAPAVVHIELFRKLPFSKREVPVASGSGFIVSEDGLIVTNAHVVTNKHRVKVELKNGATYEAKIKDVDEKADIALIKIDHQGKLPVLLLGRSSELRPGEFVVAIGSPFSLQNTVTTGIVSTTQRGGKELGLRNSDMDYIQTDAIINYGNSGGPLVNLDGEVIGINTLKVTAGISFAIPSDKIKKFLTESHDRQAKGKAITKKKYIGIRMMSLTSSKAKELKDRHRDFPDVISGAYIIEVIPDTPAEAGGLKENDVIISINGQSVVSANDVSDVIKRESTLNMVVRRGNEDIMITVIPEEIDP

B1: h15H6.v1 HC-A67V variant (Fab, V domains shown)
VH: EVQLVQSGAEVKKPGASVKVSCKASGYTFTDSEMHWVRQAPGQGLEWIGGVDPETDGAAYNQKFKGRVTLTADTSTSTAYLELSSLRSEDTAVYYCTRGYDYDYALDYWGQGTLVTVSS
VL: DIQMTQSPSSLSASVGDRVTITCRASSSVNFIHWYQQKPGKAPKPWISATSNLASGVPSRFSGSGSGTDFTLTISSLQPEDFATYYCQQWSSNPWTFGQGTKVEIK
notes: built as h15H6.v1
[1]
  binding result: binds

B2: h15H6.v1 HC-A71R variant (Fab, V domains shown)
VH: B1 VH with V68A, A72R
VL: B1 VL
notes: built as h15H6.v1
[1]
  binding result: binds
[2]
  binding result: binds

B3: h15H6.v2 LC-N94Q LC-P95 Fab (Fab, V domains shown)
VH: B1 VH with V68A, L70I, A72R
VL: B1 VL with W46L, N93Q
notes: Produced as Fab; also called QP
[3]
  Kd: 0.52 nM
  koff: 0.00029 s⁻¹
  kon: 560000 M⁻¹ s⁻¹
[4]
  fold reduction in binding affinity against h15H6.v2: ~2 fold

B4: h15H6.v1 HC-L69I variant (Fab, V domains shown)
VH: B1 VH with V68A, L70I
VL: B1 VL
notes: built as h15H6.v1
[1]
  binding result: binds
[2]
  binding result: binds

B5: h15H6.v2.APEG Fab (Fab, name in Kabat numbering, V domains shown)
VH: B1 VH with D56E, V68A, L70I, A72R
VL: B1 VL with W46L, N93A
notes: also called h15H6.v3; LC-N94A LC-P95 HC-D55E HC-G56
[5]
  Kd: 0.6 nM
  koff: 0.00021 s⁻¹
  kon: 350000 M⁻¹ s⁻¹
[6]
  Kd: 0.546 nM
  koff: 0.000172 s⁻¹
  kon: 315000 M⁻¹ s⁻¹
[7]
  Kd: 0.546 nM
  koff: 0.000172 s⁻¹
  kon: 315000 M⁻¹ s⁻¹
[8]
  IC50 FRET (H2-Opt substrate cleavage): 0.41 nM
  IC90 FRET (H2-Opt substrate cleavage): 2.77 nM
  Max inhibition (FRET H2-Opt assay): 77

B6: h15H6.v2 LC-W91Y Fab (Fab, V domains shown)
VH: B1 VH with V68A, L70I, A72R
VL: B1 VL with W46L, W90Y
notes: Produced as Fab
[9]
  Kd: 11.2 nM
  koff: 0.0037 s⁻¹
  kon: 330000 M⁻¹ s⁻¹
[10]
  Kd: 7.1 nM
  koff: 0.0017 s⁻¹
  kon: 240000 M⁻¹ s⁻¹

B7: h15H6.v2 LC-N94S LC-P95 Fab (Fab, V domains shown)
VH: B1 VH with V68A, L70I, A72R
VL: B1 VL with W46L, N93S
notes: Produced as Fab; also called SP
[3]
  Kd: 0.52 nM
  koff: 0.00025 s⁻¹
  kon: 480000 M⁻¹ s⁻¹
[4]
  fold reduction in binding affinity against h15H6.v2: ~2 fold

B8: h15H6.v1 LC-W47L variant (Fab, V domains shown)
VH: B1 VH with V68A
VL: B1 VL with W46L
notes: its VL equals the VL of h15H6.v2, which carries LC-W47L as its only light chain change
[1]
  binding result: binds
[2]
  binding result: binds

B9: h15H6.v1 LC-S49Y variant (Fab, V domains shown)
VH: B1 VH with V68A
VL: B1 VL with S48Y
notes: built as h15H6.v1
[1]
  fold reduction of binding against h15H6.v1: ~10 fold
[2]
  fold reduction of binding against h15H6.v1: ~10 fold

B10: h15H6.v1 HC-T93A variant (Fab, V domains shown)
VH: B1 VH with V68A, T97A
VL: B1 VL
notes: built as h15H6.v1
[1]
  binding result: binds

B11: h15H6.v2 Fab (Fab, V domains shown)
VH: B1 VH with V68A, L70I, A72R
VL: B1 VL with W46L
notes: Tested as Fab; also called parent; parental Fab
[5]
  Kd: 0.4 nM
  koff: 0.00021 s⁻¹
  kon: 490000 M⁻¹ s⁻¹
[6]
  Kd: 0.219 nM
[11]
  Kd: 0.33 nM
  koff: 0.00014 s⁻¹
  kon: 430000 M⁻¹ s⁻¹
[3]
  Kd: 0.25 nM
  koff: 0.00016 s⁻¹
  kon: 630000 M⁻¹ s⁻¹
[7]
  Kd: 0.219 nM
[12]
  IC50, FRET-based H2-Opt blocking assay: ~0.39 nM
[8]
  IC50 FRET (H2-Opt substrate cleavage): 0.44 nM
  IC90 FRET (H2-Opt substrate cleavage): 1.87 nM
  Max inhibition (FRET H2-Opt assay): 91
[9]
  Kd: 0.2 nM
  koff: 0.00012 s⁻¹
  kon: 690000 M⁻¹ s⁻¹
[10]
  Kd: 0.4 nM
  koff: 0.00015 s⁻¹
  kon: 360000 M⁻¹ s⁻¹
[13]
  Kd: 0.22 nM
  koff: 0.000158 s⁻¹
  kon: 722000 M⁻¹ s⁻¹
[14]
  Kd: 0.22 nM
  koff: 0.000158 s⁻¹
  kon: 722000 M⁻¹ s⁻¹

B12: anti-HtrA1 hybridoma antibody clone 19B12 (antibody, V domains shown)
VH: EVKLVESGGGLVEPGGSLKLACVASGFTFSSYIMSWVRQTPEKRLEWVAYISNGGGTTYYSDTIKGRFTISRDNAKNTLYLQMSTLKSEDTAIYFCARQNFRSDGSSMDYWGQGTAVTVSS
VL: NIVVTQSPASLAVSLGQRATISCRASESVDSYGKSFMHWYQQKPGQPPKLLIYLASKLESGVPARFSGSGSRTDFTLTIDPVEADDAATYYCQQNNEDPYTFGGGTKLEIK
notes: Murine mIgG2a, from hybridoma or recombinant from 293 cells; also called m19B12
[15]
  IC50, FRET-based blocking assay (H2-Opt cleavage): 1 nM
[16]
  IC50, FRET blocking assay, recombinant antibody from 293 cells: ~1.2 nM
  IC50, FRET-based blocking assay (H2-Opt cleavage): 1.4 nM
[17]
  binding result: no binding
